The source of these data is patent US20260232769A1 (WUXI BIOLOGICS IRELAND, published 2026).

Numbering of substitutions follows the chain as printed.

What all share (experiment): cell-based or functional assay
Test [1] deals with T1, IL-2Rβ/γc complex (intermediate affinity receptor) on primary human CD8+ T cells (human, UniProt P14784 27-551; P31785 23-369).
T1 sequence (looked up) 1: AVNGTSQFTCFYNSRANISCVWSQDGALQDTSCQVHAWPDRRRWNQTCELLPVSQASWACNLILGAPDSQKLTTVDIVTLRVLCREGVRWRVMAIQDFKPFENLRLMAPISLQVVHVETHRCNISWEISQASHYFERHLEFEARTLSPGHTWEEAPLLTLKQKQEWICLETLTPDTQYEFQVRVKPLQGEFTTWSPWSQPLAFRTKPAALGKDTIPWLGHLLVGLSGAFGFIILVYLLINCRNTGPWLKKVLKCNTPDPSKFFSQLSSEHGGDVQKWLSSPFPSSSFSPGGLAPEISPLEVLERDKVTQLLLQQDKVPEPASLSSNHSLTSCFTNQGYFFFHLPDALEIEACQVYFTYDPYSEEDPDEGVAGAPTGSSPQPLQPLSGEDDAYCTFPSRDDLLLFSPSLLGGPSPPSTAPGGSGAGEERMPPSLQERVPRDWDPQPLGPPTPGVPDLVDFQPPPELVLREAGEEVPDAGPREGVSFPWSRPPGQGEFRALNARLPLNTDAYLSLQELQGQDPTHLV
T1 sequence (looked up) 2: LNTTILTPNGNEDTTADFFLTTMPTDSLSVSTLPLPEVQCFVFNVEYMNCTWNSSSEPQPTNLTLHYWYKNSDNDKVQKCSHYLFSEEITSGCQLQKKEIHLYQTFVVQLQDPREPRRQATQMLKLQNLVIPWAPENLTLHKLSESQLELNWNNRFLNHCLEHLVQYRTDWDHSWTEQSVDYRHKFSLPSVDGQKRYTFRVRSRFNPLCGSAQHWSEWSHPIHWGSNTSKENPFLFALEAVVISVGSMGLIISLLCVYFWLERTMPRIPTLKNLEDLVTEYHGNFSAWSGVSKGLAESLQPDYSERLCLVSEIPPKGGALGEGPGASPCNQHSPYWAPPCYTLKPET

Test [2] deals with T2, IL-2Rα/β/γc complex (high affinity receptor) on human activated CD8+ T cells (human, UniProt P01589 22-272; P14784 27-551; P31785 23-369).
T2 sequence (looked up) 1: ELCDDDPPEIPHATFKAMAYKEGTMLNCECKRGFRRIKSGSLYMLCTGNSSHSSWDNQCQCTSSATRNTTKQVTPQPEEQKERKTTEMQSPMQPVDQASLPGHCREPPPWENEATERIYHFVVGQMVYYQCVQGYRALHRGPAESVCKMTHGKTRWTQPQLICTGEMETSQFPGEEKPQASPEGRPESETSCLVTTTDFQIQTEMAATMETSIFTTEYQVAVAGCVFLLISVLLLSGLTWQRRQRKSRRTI
T2 sequence (looked up) 2: T1 sequence (looked up) 1
T2 sequence (looked up) 3: T1 sequence (looked up) 2

The target in test [3] is T1, IL-2Rβ/γc complex (intermediate …). This is another data set of the same source.
The target of test [4] is PD-1 (on CHO-PD1 engineered cell line; on activated CD8+ T cells) (UniProt Q15116 25-288, limits assumed).

B1: W3XX115-T2U10.Z73-63.uIgG4V322 (Fc fusion)
chain 1: APTSSSTKKTQLQLEHLLLDLQMILNGINNYDNPKLTRMLTIKFYMPKKATELKHLQCLEEELKPLEEVLNLAQSKNFHLRPRDLISNINVIVLRLKGSETTFMCEYADETATIVEFLNRWITFCQSILESKYGPPCPPCPAPEAAGGPSVFLFPPKPKDTLMISRTPEVTCVVVDVSQEDPEVQFNWYVDGVEVHNAKTKPREEQFNSTYRVVSVLTVLHQDWLNGKEYKCKVSNKGLPSSIEKTISKAKGQPREPQVYTLPPCQEEMTKNQVSLWCLVKGFYPSDIAVEWESNGQPENNYKTTPPVLDSDGSFFLYSRLTVDKSRWQEGNVFSCSVMHEALHNHYTQKSLSLSLGK
chain 2: QVQLVESGGGVVQPGGSLRLSCAASDSIDSLVNMGWYRQAPGKQRELVALIATYITHYADFVKGRFTISRDNSKNTLYLQMNSLRAEDTAVYYCYARNIIVDYWGQGTLVTVSSGGGGSGGGGSGGGGSQVQLVESGGGVVQPGGSLRLSCAASDSIDSLVNMGWYRQAPGKQRELVALIATYITHYADFVKGRFTISRDNSKNTLYLQMNSLRAEDTAVYYCYARNIIVDYWGQGTLVTVSSESKYGPPCPPCPAPEAAGGPSVFLFPPKPKDTLMISRTPEVTCVVVDVSQEDPEVQFNWYVDGVEVHNAKTKPREEQFNSTYRVVSVLTVLHQDWLNGKEYKCKVSNKGLPSSIEKTISKAKGQPREPQVCTLPPSQEEMTKNQVSLSCAVKGFYPSDIAVEWESNGQPENNYKTTPPVLDSDGSFFLVSRLTVDKSRWQEGNVFSCSVMHEALHNHYTQKSLSLSLG
As for B1, the “Potency reduction, pSTAT5, human activated CD8+ T” value in test [1] was 2.5 fold.

B2: W3XX115-T2U3.E44-33.uIgG4V322 (Fc fusion)
chain: B1 chain 1 with D32K, R38W, I42F, R95E
heavy: QVQLVQSGAEVKKPGSSVKVSCKASGFTFTTYYISWVRQAPGQGLEYLGYINMGSGGTNYNEKFKGRVTITADKSTSTAYMELSSLRSEDTAVYYCAIIGYFDYWGQGTMVTVSSASTKGPSVFPLAPCSRSTSESTAALGCLVKDYFPEPVTVSWNSGALTSGVHTFPAVLQSSGLYSLSSVVTVPSSSLGTKTYTCNVDHKPSNTKVDKRVESKYGPPCPPCPAPEAAGGPSVFLFPPKPKDTLMISRTPEVTCVVVDVSQEDPEVQFNWYVDGVEVHNAKTKPREEQFNSTYRVVSVLTVLHQDWLNGKEYKCKVSNKGLPSSIEKTISKAKGQPREPQVCTLPPSQEEMTKNQVSLSCAVKGFYPSDIAVEWESNGQPENNYKTTPPVLDSDGSFFLVSRLTVDKSRWQEGNVFSCSVMHEALHNHYTQKSLSLSLGK
light: DVVMTQSPLSLPVTLGQPASISCRSSQSLLDSDGGTYLYWFQQRPGQSPRRLIYLVSTLGSGVPDRFSGSGSGTDFTLKISRVEAEDVGVYYCMQLTHWPYTFGQGTKLEIKRTVAAPSVFIFPPSDEQLKSGTASVVCLLNNFYPREAKVQWKVDNALQSGNSQESVTEQDSKDSTYSLSSTLTLSKADYEKHKVYACEVTHQGLSSPVTKSFNRGEC
Take B2: in test [2], the “Potency reduction, pSTAT5, human activated CD8+ T (CD25 positive and PD-1 positive)” value was determined as 48.6 fold; the “pSTAT5 EC50, human activated CD8+ T (CD25 positive and PD-1 positive)” value (“pSTAT5 EC50, human activated CD8+ T” for short) came out at 1.32 nM. Besides, in test [3], the “Potency reduction, pSTAT5, human primary CD8+ T” value is 26.2 fold and the “pSTAT5 EC50, human primary CD8+ T” value was 373 nM. Also, the “PD-1+/PD-1- ratio (pSTAT5 potency, activated versus primary CD8+ T)” value (“PD-1+/PD-1- ratio” below) in test [4] worked out at 283 fold.

B3: W3XX115-T2U3.E44-15.uIgG4V322 (Fc fusion)
chain: B1 chain 1 with D32K, I42V, R95E, L129I
heavy: B2 heavy
light: B2 light
For B3, in test [2], the “Potency reduction, pSTAT5, human activated CD8+ T (CD25 positive and PD-1 positive)” value is 139 fold; the “pSTAT5 EC50, human activated CD8+ T” value was found to be 3.78 nM. Besides, in test [3], the “Potency reduction, pSTAT5, human primary CD8+ T” value worked out at 132 fold and the “pSTAT5 EC50, human primary CD8+ T” value was determined as 1870 nM. Moreover, the “PD-1+/PD-1- ratio” value in test [4] worked out at 496 fold.

B4: W3XX115-T2U10.Z73-64.uIgG4V322 (Fc fusion)
chain 1: B1 chain 1 with R95E, N119R
chain 2: B1 chain 2
Consider B4, for which the “Potency reduction, pSTAT5, human activated CD8+ T” value in test [1] was found to be 58.7 fold.

B5: W3XX115-T2U3.E44-20.uIgG4V322 (Fc fusion)
chain: B1 chain 1 with D32K, R38W, I42F, R95E, L129I
heavy: B2 heavy
light: B2 light
As for B5, in test [2], the “Potency reduction, pSTAT5, human activated CD8+ T (CD25 positive and PD-1 positive)” value was 44.3 fold; the “pSTAT5 EC50, human activated CD8+ T” value worked out at 1.21 nM. In test [3], the “Potency reduction, pSTAT5, human primary CD8+ T” value was determined as 56.8 fold and the “pSTAT5 EC50, human primary CD8+ T” value was 809 nM. Further, in test [4], the “PD-1+/PD-1- ratio” value is 669 fold.
